Consider 20 sequences from a protein production outcome set (Wang et al. 2014).

The data set is described as follows: label from the status in PepcDB records.
Turning to “MPHFLAKLDFKPLEYPLIEGDFCFHREFLSLKNPTKSCVYASFKDRIFLLQKIRRANDFLIKSEKATPLKREVLKQALRIYSQSFEVISHNLQENSKHASGKKTLDLGTFEDFIQKNQAPILIEIGFGSGRHLIELAKNNPTKTCLGIEIHTPSIAQALKQIELLDLKNLHILQGDGRLVLESMPNHRCEKIFVHFPVPWNEKKHRRVLSEKFLNEALRVLKPRGFLELRTDDSLYFEDSLKLALKNFQCEIEIKKNAQIPVVSKYEARWNKLKKDIYDLRIYSLEWNETPFDNHAFDFSFDTITISKKSVGTILKTKKIIQEGYFVHVCNIYENKGDFLVELSMGDFDWPVRLFVLLTENQIFYLNKSPLKTLNNHKAHLLLQNILSQKGIG”, the protein production result is “failed”.

As for “MPHGVEVEPGVAKLTTYASKQATDMGAIYVNSKGDRIVNESNVYTTFRNAILKQADKVAYLVMDERTWKKVYDLLILHDFTPEEIKSFFENKGKRPVFVKGSLESAAEQAGIVVDELVQTVKNYQGYVQDGHDHDFGRDPKYLHQFEGETFYIIEQRLEHHHHHH”, the protein production entry is reported as “not failed”.

Regarding “MPHPATMFLLLTMAVVFLSWICDIYGLKVTLPQSGEDIRVQSLLSPEGIRWWLRNAIKNFTGFAPLGMVIIAMFGLGVAQHSGFIDACIRLGVGNRKEKRKVILWVIVLGLLSNVIGDGGYIILLPIAAMLFQWVGLHPIAGIVTAYVSVACGYSANIVLSTMDPLLAHTTQEAALTLMGYQGNTEPLCNYFFMSASTVVITGIVYWVTQKWLLPNLGKYEGSVKVEAYRPLSRKERRALMVAVVVAGIYVALILWLTFSSYGILRGVNGGLMHSPFIAGILFLLSLGAGFTGMAYGFSSGRYRSDNDVIEGLTQPIKLLGVYFVIAFFAAQMFACFEYSHLDKCLAIMGADLLSSFEPAPLSALILFILFTAFINLIMVSATSKWAFMSFIFIPMFAQMGISPDVTQCAFRIGDSSTNAITPFLFYMPLVLTYMRQYDKQITYGSLLKYTWRYSLCILAAWTLLFIVWYLLKIPMGL”, the protein production entry is recorded as “failed”.

Regarding “MPHRCAAQVVAGYRSTVSLVLVEHPRPEIAQITLNRPERMNSMAFDVMVPLKEALAQVSYDNSVRVVVLTGAGRGFSPGADHKSAGVVPHVENLTRPTYALRSMELLDDVILMLRRLHQPVIAAVNGPAIGGGLCLALAADIRVASSSAYFRAAGINNGLTASELGLSYLLPRAIGSSRAFEIMLTGRDVSAEEAERIGLVSRQVPDEQLLDACYAIAARMAGFSRPGIELTKRTLWSGLDAASLEAHMQAEGLGQLFVRLLTANFEEAVAARAEQRAPVFTDDT”, the protein production result was “failed”.

Turning to “MPIGFLRSLTARHRNPVSNRRLARVLCFVAGAANAGGFLAVQQYTSHMSGIVSAIADDLVLQRYGLVVHGIGALASFLAGAGTTAILVNWARRARLRSEYAIPLLVEATLLLCFGLLGSHLNDMDWLFVPATVMLLCFMMGLQNALITKLSNAEIRTTHVTGMVTDIGIELGKLFYWNAAVRPNSRPVMADRHKLRLLTVLVGMFLVGGIVGAQAFSTLGYAATLPLAALLLIVAIIPVADDLLTRLLLRVHRADSARRARRWGARGR”, the protein production entry is “failed”.

On to “MPIHIGSSIPLMVEKMLTEMVKPSKHIPQQTLNLSTLDNDPYNEVIYKACYVFKAKNVADDDNRPEALLREALSDLLGYYYPLSGSLKRQESDRKLQLSCGGDGGGVPFTVATANVELSSLKNLENIDSDTALNFLPVLHVDIDGYRPFALQVTKFECGGFILGMAMSHAMCDGYGEGHIMCALTDLAGGKKKPMVTPIWERERLVGKPEDDQPPFVPGDDTAASPYLPTDDWVTEKITIRADSIRRLKEATLKEYDFSNETITTFEVIGAYLWKSRVKALNLDRDGVTVLGLSVGIRNVVDPPLPDGYYGNAYIDMYVPLTAREVEEFTISDIVKLIKEAKRNAHDKDYLQEELANTEKIIKMNLTIKGKKDGLFCLTDWRNIGIFGSMDFGWDEPVNIVPVVPSETARTVNMFMRPSRLESDMVGGVQIVVTLPRIAMVKFKEEMEALE”, for which the protein production entry is given as “failed”.

Take “MPIITKNTDTTCQTPPLLSIICPAYNQEAFVAQALDGFLSQQTRFNYEILINDDASTDGTARIIAQYAERHPTIIRAFYQQVNQYSQGLPCVPDLFAEARGRYIAYCEADDYWTDPRKLQLQVDFLESHPDYVITYHDAVAFDENGEYGVQLQGHLRADATALELQQARRLSTLTTCFRNVFSTMPPELNIRVAPLNDMCWWSLLGAHGKGKFMADIKPAAYRLHAGGVFSMRSDKRKLHMNLQTCSSLANYYNLQGNQALYEYFLMQTVCLSLAALTPSHKLQTLWQVASNVVVNLGRRLLPTTGKAHVQ”: the protein production entry is “failed”.

As to “MPINTLESSPWRGSRHDFCRERLEPLLDQAGIRINGDRPWDIRVHDPAFFRRMFADASLGLGESYVDGWWDCDRIDEFICRIIRAGLADRFRSWRDAVAALQARLFNLQHAARAFHVGQRHYDIGNDLYGCMLDRRMIYSCGYWKDATTLDEAQEAKLDLVFRKIGLEPGMRVLDIGCGWGGAARFAAEKYGVEVYGVTVSAEQARYAREICQGLPVTIELKDYRDIEGHFDRAYSLGMFEHVGCKNYGTYMKLVADRLPDDGLFLLHTIGINTSDNHGNPWVDRYIFPNSMLPSIAQIGTATENRLVMEDWQNFGPDYDRTLLTWYDRFEWHWPSLRPRYGDRFYRMWRFYLLSFAGAFRARYIQLWQIVLSPKGLTRRYDAPR”, the protein production entry is listed as “failed”.

Take “MPKGLMLTDLAIAGLLLIVAKVIRVHTPLLQRMYIPSAVLAGLFGLVFGPAMLDLLPWTDTFTANASLLTAALFSALGLATDVPSPKVVAQRAGSLWAFNQIASVSQWLFAAMFGLLLTTFFWPEINPGFGVTMSAGFMGGHGSASVVGDIFTGLGWEDGFTLGLTFATVGIFISISIGMLMLQFALKMGWIRSFTTFDSMDEHERKGLVKPTEQEPVMKDTMSSLSVDSFAIHAALVVVVTAFSYVAANYLSSFHDKVQIPTFVTGFLGGMLVRIVAKQTKASRYLCDGAFKHAAGISTDYLIIFGISAIKITVLAQYLAPMIVLAIGGIAFTLWLIFWVAPRIMGDDWFEKGIFSWGWLTGTVAMGIALLRIVDPKMRSKVLDDYAIAYVPGSITDIFIISLMPIAMYNGMEWQALGVGLAYIAVVLFIWRFVFKRSGQTVTDAS”: the protein production result is “failed”.

Consider “MPKHEFSVDMTCGGCAEAVSRVLNKLGGVKYDIDLPNKKVCIESEHSMDTLLATLKKTGKTVSYLGLE”, for which the protein production entry is listed as “not failed”.

For “MPKLPPLSLYIHIPWCVQKCPYCDFNSHAQKSDIPEQDYIYHLLQDLQADLQRFKDSIQQRKLHSIFIGGGTPSLFSAESIAYLLKEIKKQIDFEDNIEITLEANPGTVEAERFKGYVSAGIMRISMGIQSFNDDKLQRLGRIHNAAEAKSAVNLAKVSGLKSFNLDLMHGLPNQTLEEALDDLRQAIELSPPHISWYQLTIEPNTMFAYRPPKLPDDDALWDIFEQGHQLLTMAGYQQYETSAYAKAGFQCKHNLNYWRFGDYLAIGCGAHGKLTFPTGEITRFSKTKHPKGYLRGEYLYEEKNVPKIDRPFEFFMNRFRLLEAVPKQEFEDYTGLSQSAVKNQIDFAIQQNYIVENADSWQITEHGKLFLNELLELFLTEELEHHHHHH”, the protein production entry is “not failed”.

On to “MPKPHETAVYTHGHHESVLRSHTWRTAENSAAYLLGSLRPHMRILDIGCGPGTITADLAERVPEGHVTGVDRSPEIVERARATAAARGLENTGFAVADVHALDYPDDTFCVVHAHQVLQHVGDPVRALREMRRVARPGGFIAVRDSDYGAMTWYPASSGMDDWLDLYHRVARANGGEPDAGRRLKAWALEAGFTDITATSATWTFTTPEEREWWSGLWADRTLASAYAERATEGGHATPERLRAVSAAWRDWGKHPESWFSVLHGEILCRKEA”, for which the protein production entry is listed as “failed”.

As to “MPKVEIAPSEIKIPDNVLKAKLGFGGAEEIPEEFRKTVNRAYEELLDAAKPVVLWRDFEVDGSLSFDDMRLTGELATKHLSGSKIITVFLATLGKKVDEKIEEYFRKGEDLLAFFIDGIASEMVEYALRKVDAELRMKRSNLEGSFRISPGYGDLPLSLNKKIAEIFKEEVDVNVIEDSYVLVPRKTITAFVGWREKNEKQT”, the protein production entry is recorded as “not failed”.

Consider “MPKVTVSIKVVPAVEDGRLHEVIDRAIEKISSWGMKYEVGPSNTTVEGEFEEIMDRVKELARYLEQFAKRFVLQLDIDYKAGGITIEEKVSKYR”, for which the protein production entry is recorded as “not failed”.

With “MPLIPAVPGLADRRMYVFLLLLTLGSGMSFQGWNTLYTNFAVHGAGLSGAENGLVQSIREVPGLLTFGVIPLLLLLREHRLAALAVLVTGVGVMTAGLLPTLWGVVATTLVMSFGFHYFEAVNQSLILQYFDVRTAPLVMGRLRGLAAGGNLVMGALVYVLADLFAFSTLFCIMGAFATVAGAWALTRDPSDPARPAQRRSMVLRRRYWLFYLLTILAGARRQIFTVFSVFLLVEHFGYGVREVALLFIVNNAVNWFLNPLIGRAVNRFGEQHLLTVEYSVLVLVFLGYTVTDSPLVAAFLYVVDHIFFNFAIAIRTFFQKIADPADIAPSMAMSVAINHIAAVVMPVCGGMLWMLDYRIPFYVGAGLAVASLLATQRIGAELRLQGVKPC”, the protein production result is “failed”.

In the case of “MPLKKLIEIGSADFSVSTTACVLQLSHREVPVRGKQSKVISGVLADETARLPFTAWVELPGIDIGSIIRIEGAQIRMFRGMPSINFLEHHHHHH”, the protein production entry was “failed”.

As to “MPLPSLKDQFGALIAASSVSCTQPELDQTNRPVVDLLASWLGDLGFRCEIREVSPGKFNLLASYGSGPGGLVLAGHTDTVPYDEALWSSDPLRLDERDGRWYGLGSCDMKGFFPLAIEALLPLLDQPFRQPLMILATCDEESSMAGARALAESGRPLGRATVIGEPTNLRPIRLHKGVMMERIEILGQSGHSSDPNLGRSALEAMHATIGELMALRGEWQRAWNNPQFSVPQPTLNFGCIHGGDNPNRICGQCSLEFDLRPLPGMQPKQLREAIRQRLRPLAERHQVSIDYQPLFPAVPPFEQAQDSELVRVAERLTGHRAEAVAFGTEAPYFQRLGSETLVLGAGDIACAHQPDEHLELARIEPMVGVLRRLIQHYCLTPAAD”, the protein production entry is “failed”.

On to “MPLPSSARALKKPRLDDEVRFLRSWIEKPLHMGAVMPSGKLLARTMAHYVDVNSDAPVVELGPGTGAITSALVERGVDQKRLVLVEYNPGFCALLRDRYPQAKVVQGDAYRLRDTLWNVLSAPASAVVSGLPLVTKPMLTRLRLIRDAFTALAPGAPFVQFTYAVVPPIPKSLPGVSTEASERIWMNLPPARVWVYRKD”, for which the protein production entry is “failed”.

As to “MPLRFTTRRAEGGSARRPLSIVSCPLFCPSEPNQFSPMLFRQINDAKLAQYAYLIGCQETGEALLVDPERDIDRYLDLAEREGLEITAVTETHIHADFLSGARELAERFDTTLYLSDEGDENWKYEWAQGPKQGGGDYDVTWLHDGDTFQVGSVEVTALHTPGHTPEHLSFLVTDRGGGADEPMGLLTGDFVFVGDLGRPDLLESAAQVEGAMEPSARTLYTSVQRVLEMPDHLQVWPAHGAGSACGKALGAVPQSTLGYEKQFNPMIDAAREGEDAFVEAILADQPEPQIYFARMKRDNKEGMPVLGSLPAPRELTVRELEDAAADEAPLVIDTRLDRSAYMANHIPGSLYAPMNDTFNTVVGSLVEDETTPIVLIADEGDVEEAVRDLVRIGYDNVTGFAEIDTLQRYFQAGGPSETIDEITFADFDAELQDEATGVLDVRYRSEYEEGHVEGALNASYTRMPEYETELPTDKTLLVHCGSGARAAAASSYLARTGHSVKYVNDHFANYEAASEEAVAA”, the protein production entry is “failed”.

With “MPLTDTPPSVPQKPRRGRPRGAPDASLAHQSLIRAGLEHLTEKGYSSVGVDEILKAARVPKGSFYHYFRNKADFGLALIEAYDTYFARLLDQAFLDGSLAPLARLRLFTRMAEEGMARHGFRRGCLVGNLGQEMGALPDDFRAALIGVLETWQRRTAQLFREAQACGELSADHDPDALAEAFWIGWEGAILRAKLELRPDPLHSFTRTFGRHFVTRTQE”, the protein production entry is on record as “not failed”.
